Experimental findings from the Human Domainome abundance scans (Beltran et al. 2025) are described below.

B1: Retinoic acid receptor beta, residues 85 to 161; numbered along this chain, P10826 (parent)
chain: YKPCFVCQDKSSGYHYGVSACEGCKGFFRRSIQKNMIYTCHRDKNCVINKVTRNRCQYCRLQKCFEVGMSKESVRND

± gives the uncertainty stated by the source.

This data set covers variants of B1. Description: abundance fitness (aPCA) (normalised: wild type 0, dead -1); higher = more abundant; growth selection in yeast, the domain comes from the species named. The following applies: Homo sapiens.
As for YKPCFVCQDKSSMYHYGVSACEGCKGFFRRSIQKNMIYTCHRDKNCVINKVTRNRCQYCRLQKCFEVGMSKESVRND [G13M], the abundance fitness was -0.067 ± 0.1.
As for YKPCFVCQDKSSAYHYGVSACEGCKGFFRRSIQKNMIYTCHRDKNCVINKVTRNRCQYCRLQKCFEVGMSKESVRND [G13A], the abundance fitness is -0.325 ± 0.1.
Consider YKPCFVCQDKSSIYHYGVSACEGCKGFFRRSIQKNMIYTCHRDKNCVINKVTRNRCQYCRLQKCFEVGMSKESVRND [G13I], for which the abundance fitness is -0.279 ± 0.12.
As to YKPCFVCQDKSSRYHYGVSACEGCKGFFRRSIQKNMIYTCHRDKNCVINKVTRNRCQYCRLQKCFEVGMSKESVRND [G13R], the abundance fitness is -0.289 ± 0.11.
The result for YKPCFVCQDKSSSYHYGVSACEGCKGFFRRSIQKNMIYTCHRDKNCVINKVTRNRCQYCRLQKCFEVGMSKESVRND [G13S] reads -0.055 ± 0.059; that for YKPCFVCQDKSSFYHYGVSACEGCKGFFRRSIQKNMIYTCHRDKNCVINKVTRNRCQYCRLQKCFEVGMSKESVRND [G13F], -0.349 ± 0.14; that for YKPCFVCQDKSSEYHYGVSACEGCKGFFRRSIQKNMIYTCHRDKNCVINKVTRNRCQYCRLQKCFEVGMSKESVRND [G13E], -0.068 ± 0.12.
For the variant YKPCFVCQDKSSQYHYGVSACEGCKGFFRRSIQKNMIYTCHRDKNCVINKVTRNRCQYCRLQKCFEVGMSKESVRND [G13Q], the abundance fitness was -0.503 ± 0.2.
Turning to YKPCFVCQDKSSCYHYGVSACEGCKGFFRRSIQKNMIYTCHRDKNCVINKVTRNRCQYCRLQKCFEVGMSKESVRND [G13C], the abundance fitness is -0.334 ± 0.11.
In the case of YKPCFVCQDKSSKYHYGVSACEGCKGFFRRSIQKNMIYTCHRDKNCVINKVTRNRCQYCRLQKCFEVGMSKESVRND [G13K], the abundance fitness was -0.292 ± 0.2.
Take YKPCFVCQDKSSDYHYGVSACEGCKGFFRRSIQKNMIYTCHRDKNCVINKVTRNRCQYCRLQKCFEVGMSKESVRND [G13D]: the abundance fitness turned out to be 0.082 ± 0.081.
For YKPCFVCQDKSSHYHYGVSACEGCKGFFRRSIQKNMIYTCHRDKNCVINKVTRNRCQYCRLQKCFEVGMSKESVRND [G13H], the abundance fitness is -0.265 ± 0.15.
The result for YKPCFVCQDKSSLYHYGVSACEGCKGFFRRSIQKNMIYTCHRDKNCVINKVTRNRCQYCRLQKCFEVGMSKESVRND [G13L] reads -0.457 ± 0.093.
With YKPCFVCQDKSSWYHYGVSACEGCKGFFRRSIQKNMIYTCHRDKNCVINKVTRNRCQYCRLQKCFEVGMSKESVRND [G13W] the figure was -0.673 ± 0.39.
With YKPCFVCQDKSSTYHYGVSACEGCKGFFRRSIQKNMIYTCHRDKNCVINKVTRNRCQYCRLQKCFEVGMSKESVRND [G13T] the figure was -0.053 ± 0.068; with YKPCFVCQDKSSVYHYGVSACEGCKGFFRRSIQKNMIYTCHRDKNCVINKVTRNRCQYCRLQKCFEVGMSKESVRND [G13V], -0.192 ± 0.081.
For YKPCFVCQDKSSYYHYGVSACEGCKGFFRRSIQKNMIYTCHRDKNCVINKVTRNRCQYCRLQKCFEVGMSKESVRND [G13Y], the abundance fitness was -0.206 ± 0.088.
For YKPCFVCQDKSSNYHYGVSACEGCKGFFRRSIQKNMIYTCHRDKNCVINKVTRNRCQYCRLQKCFEVGMSKESVRND [G13N], the abundance fitness was -0.145 ± 0.12.
Regarding YKPCFVCQDKSIGYHYGVSACEGCKGFFRRSIQKNMIYTCHRDKNCVINKVTRNRCQYCRLQKCFEVGMSKESVRND [S12I], the abundance fitness is -0.096 ± 0.14.
With YKPCFVCQDKSVGYHYGVSACEGCKGFFRRSIQKNMIYTCHRDKNCVINKVTRNRCQYCRLQKCFEVGMSKESVRND [S12V], the abundance fitness turned out to be 0.011 ± 0.04.
Take YKPCFVCQDKSMGYHYGVSACEGCKGFFRRSIQKNMIYTCHRDKNCVINKVTRNRCQYCRLQKCFEVGMSKESVRND [S12M]: the abundance fitness was -0.102 ± 0.076.
In the case of YKPCFVCQDKSTGYHYGVSACEGCKGFFRRSIQKNMIYTCHRDKNCVINKVTRNRCQYCRLQKCFEVGMSKESVRND [S12T], the abundance fitness is 0.067 ± 0.058.
With YKPCFVCQDKSRGYHYGVSACEGCKGFFRRSIQKNMIYTCHRDKNCVINKVTRNRCQYCRLQKCFEVGMSKESVRND [S12R] the figure was -0.32 ± 0.05; with YKPCFVCQDKSKGYHYGVSACEGCKGFFRRSIQKNMIYTCHRDKNCVINKVTRNRCQYCRLQKCFEVGMSKESVRND [S12K], -0.207 ± 0.076; with YKPCFVCQDKSHGYHYGVSACEGCKGFFRRSIQKNMIYTCHRDKNCVINKVTRNRCQYCRLQKCFEVGMSKESVRND [S12H], -0.034 ± 0.17.
Turning to YKPCFVCQDKSWGYHYGVSACEGCKGFFRRSIQKNMIYTCHRDKNCVINKVTRNRCQYCRLQKCFEVGMSKESVRND [S12W], the abundance fitness was -0.106 ± 0.057.
With YKPCFVCQDKSPGYHYGVSACEGCKGFFRRSIQKNMIYTCHRDKNCVINKVTRNRCQYCRLQKCFEVGMSKESVRND [S12P] the figure was -0.227 ± 0.11; with YKPCFVCQDKSYGYHYGVSACEGCKGFFRRSIQKNMIYTCHRDKNCVINKVTRNRCQYCRLQKCFEVGMSKESVRND [S12Y], -0.364 ± 0.14.
The result for YKPCFVCQDKSLGYHYGVSACEGCKGFFRRSIQKNMIYTCHRDKNCVINKVTRNRCQYCRLQKCFEVGMSKESVRND [S12L] reads -0.216 ± 0.059; that for YKPCFVCQDKSNGYHYGVSACEGCKGFFRRSIQKNMIYTCHRDKNCVINKVTRNRCQYCRLQKCFEVGMSKESVRND [S12N], 0.023 ± 0.084.
With YKPCFVCQDKSSGAHYGVSACEGCKGFFRRSIQKNMIYTCHRDKNCVINKVTRNRCQYCRLQKCFEVGMSKESVRND [Y14A] the figure was 0.11 ± 0.05; with YKPCFVCQDKSSGCHYGVSACEGCKGFFRRSIQKNMIYTCHRDKNCVINKVTRNRCQYCRLQKCFEVGMSKESVRND [Y14C], -0.119 ± 0.088.
Consider YKPCFVCQDKSSGIHYGVSACEGCKGFFRRSIQKNMIYTCHRDKNCVINKVTRNRCQYCRLQKCFEVGMSKESVRND [Y14I], for which the abundance fitness worked out at 0.054 ± 0.065.
With YKPCFVCQDKSSGEHYGVSACEGCKGFFRRSIQKNMIYTCHRDKNCVINKVTRNRCQYCRLQKCFEVGMSKESVRND [Y14E] the figure was -0.038 ± 0.074; with YKPCFVCQDKSSGHHYGVSACEGCKGFFRRSIQKNMIYTCHRDKNCVINKVTRNRCQYCRLQKCFEVGMSKESVRND [Y14H], 0.113 ± 0.07; with YKPCFVCQDKSSGGHYGVSACEGCKGFFRRSIQKNMIYTCHRDKNCVINKVTRNRCQYCRLQKCFEVGMSKESVRND [Y14G], -0.244 ± 0.069.
